Among the data in patent publication US20100233165A1 (published 2010) are binding result and Kd values, retold here.

In experiment [1] the target is T1, ALCAM/MEMD/CD166 (UniProt Q13740 28-583, limits assumed).
T1 construct: whole, on cells; On Du-145 prostate cancer cells for FACS, and from lysates of surface-biotinylated Du-145 cells for IP/Western; Glycosylated, with a band of about 105 kDa; Du-145 is a human prostate cancer line
T1 sequence (looked up): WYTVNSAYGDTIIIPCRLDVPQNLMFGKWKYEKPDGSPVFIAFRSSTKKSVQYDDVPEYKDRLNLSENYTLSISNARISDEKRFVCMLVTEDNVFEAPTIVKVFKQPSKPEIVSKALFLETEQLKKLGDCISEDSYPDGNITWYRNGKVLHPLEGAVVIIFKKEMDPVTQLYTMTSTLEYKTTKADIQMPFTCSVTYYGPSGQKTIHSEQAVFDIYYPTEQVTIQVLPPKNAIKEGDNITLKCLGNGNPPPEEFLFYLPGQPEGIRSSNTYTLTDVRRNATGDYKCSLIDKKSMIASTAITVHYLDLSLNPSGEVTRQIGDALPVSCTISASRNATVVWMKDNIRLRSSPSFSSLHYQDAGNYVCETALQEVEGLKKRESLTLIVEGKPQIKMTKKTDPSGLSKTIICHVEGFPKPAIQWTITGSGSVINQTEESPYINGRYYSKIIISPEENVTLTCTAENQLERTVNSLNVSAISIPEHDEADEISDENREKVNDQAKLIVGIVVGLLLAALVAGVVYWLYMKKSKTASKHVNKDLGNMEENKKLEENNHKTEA
In words: caption of the IHC table. The text has this:
Phage antibodies selected by LCM were expected to bind to clinically relevant antigens on cancer cells in situ. We performed immunohistochemical studies using soluble scFv fragments derived from LCM-selected phage antibody on prostate cancer tissue sections. […] The 585II41 scFv also stained tumor cells intensely on frozen tissue slides (FIG. 4, panel B). Some basal cells in normal epithelium adjacent to tumor were also stained with reduced intensity (Table 5). […] These experiments indicate that antibodies obtained from LCM selection bind to antigens that exist in patient specimens and thus are clinically relevant to human prostate cancer. The corresponding antigens are likely targets for therapeutic intervention.
TABLE 5 Immunohistochemistry (IHC) results of the 585II41 and UA20 scFv fragments on a panel of frozen CaP and normal tissues. The numbers of cases studied are indicated. Biotinylated scFv fragments were first tested on cell lines to ensure binding activity and then used for IHC studies. As a control, a random scFv with no binding activity to cell lines was used to register the background level of staining. No change, no change in staining level was observed when compared with the result of the control scFv

Experiment [2] deals with T1, ALCAM/MEMD/CD166. Briefly: FACS competition on Du-145 cells against 585II41 scFv.
In experiment [3] the target is T1, ALCAM/MEMD/CD166. In words: apparent KD by FACS on Du-145 cells, IgG1 incubated at 4° C. overnight, curve fitting of MFI. How it is done: Monodispersed DU-145 cells were incubated with varying concentrations of IgG1s at 4° C. overnight to allow equilibrium binding. After washing, bound human IgG1s were detected by R-phycoerythrin-conjugated goat anti-human secondary antibody and analyzed by FACS. Mean fluorescence intensity (MFI) values were plotted and the KD was determined by curve fitting using GraphPad (GraphPad Software, San Diego, Calif.).

B1: 585II41 scFv (scFv, not shown: small tags and cut ends)
scFv: QVQLVESGGGLVQPGGSLRLSCAASGFTFSSYAMGWVRQAPGKGLEWVSAISGSGGSTYYADSVKGRFTISRDNSKDTLYLQMNSLRAEDTAVYYCASRSLLDYWGQGTLVTVSSGGGGSGGGGSGGGGSNFMLTQDPAVSVALGQTVRITCQGDSLRSYYASWYQQKPGQAPLLVIYGKNNRPSGIPDRFSGSSSGNTASLTITGAQAEDEADYYCNSRDSSGNPVFGGGTKVTVL
notes: Soluble monomeric scFv from E. coli periplasm, purified by IMAC; Biotinylated for FACS analysis by the general methods; also called clone #10; H3 variant
Consider B1, for which the binding result in the experiment with ALCAM/MEMD/CD166 [1] is on record as “binds”.

B2: H3 scFv (585II41.1) (scFv)
scFv: QVQLVESGGGLVQPGGSLRLSCAASGFTFSSYAMSWVRQAPGKGLEWVSAISGSGGSTYYADSVKGRFTISRDNSKDTLYLQMNSLRAEDTAVYYCASRSLLDYWGQGTLVTVSSGGGGSGGGGSGGGGSNFMLTQDPAVSVALGQTVRITCQGDSLRSYYASWYQQKPGQAPLLVIYGKNNRPSGIPDRFSGSSSGNTASLTITGAQAEDEADYYCNSRDSSGNPVFGGGTKVTVL
notes: also called clone #11; anti-ALCAM scFv
As to B2, in the experiment with ALCAM/MEMD/CD166 [2], the binding result is recorded as “binds”.

B3: anti-ALCAM IgG1 (585II41.1, also known as H3) (antibody, V domains shown)
VH: QVQLVESGGGLVQPGGSLRLSCAASGFTFSSYAMSWVRQAPGKGLEWVSAISGSGGSTYYADSVKGRFTISRDNSKDTLYLQMNSLRAEDTAVYYCASRSLLDYWGQGTLVTVSS
VL: NFMLTQDPAVSVALGQTVRITCQGDSLRSYYASWYQQKPGQAPLLVIYGKNNRPSGIPDRFSGSSSGNTASLTITGAQAEDEADYYCNSRDSSGNPVFGGGTKVTVL
notes: Human IgG1 (detected with anti-human secondary antibody); also called H3 IgG; H3 IgG1
Regarding B3, in the experiment with ALCAM/MEMD/CD166 [3], the Kd came out at 4.4 µM.
